Experiment [1] addresses GAL4CfEcR-DEF (yeast; spruce budworm Choristoneura fumiferana). The experiment in a line: cell-based or functional assay.
Experiment [2] deals with GAL4DmEcR-DEF (yeast; fruit fly Drosophila melanogaster). The experiment in a line: cell-based or functional assay.

As for VP16MmRXRα(1-7)-LmUSP(8-12)-EF, the maximum fold induction of luciferase reporter, two-hybrid gene switch in NIH3T3 cells (fold induction) worked out at 11000 in experiment [1] and 1760 in experiment [2].
